Patent US20200255503A1

Columns and labels:
[1] = molecular target: natural Fel d1 (cat (Felis domesticus)) (UniProt P30438); test: blocking ELISA, Fel d1 binding to plate-captured polyclonal human IgE
[2] = molecular target: natural Fel d1 (cat (Felis domesticus)) (UniProt P30438); test: cell-based or functional assay
[3] = molecular target: Fel d1 (B-A)-mmH (cat (Felis domesticus)); test: blocking ELISA, Fel d1 binding to donor polyclonal cat-allergic IgE
[4] = molecular target: natural Fel d1 (cat (Felis domesticus)) (UniProt P30438); test: SPR Biacore T200 sequential binding, 25 µg/mL mAb2 over mAb1:Fel d1; coupled mAb1: REGN1909

Sequence of Fel d1 (B-A)-mmH (cat (Felis domesticus)) (chain, as listed by the source limits assumed): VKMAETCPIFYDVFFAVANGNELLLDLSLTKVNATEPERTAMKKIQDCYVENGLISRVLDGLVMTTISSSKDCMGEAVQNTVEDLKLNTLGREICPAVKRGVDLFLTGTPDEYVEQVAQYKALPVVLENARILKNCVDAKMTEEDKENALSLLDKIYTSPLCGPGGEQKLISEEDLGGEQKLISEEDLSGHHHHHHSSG

| IC50 [1] [nM] | maximum blockade [1] [%] | basophil activation test, CD63 upregulation on basophils of cat-allergic donors, IC50 [2] [nM] | basophil activation test, CD203c upregulation on basophils of cat-allergic donors, IC50 [2] [nM] | phosphoflow assay, phosphorylation of ERK in basophils, inhibition [2] [%] | IC50 [3] [nM] | Non-binding Control mAb (RU) [4] [RU] | Substance |
| --- | --- | --- | --- | --- | --- | --- | --- |
| 0.45 | 83 | 0.01 | 0.055 | > 80 | 0.58 | – | REGN1908-1909 |
| – | – | – | – | – | – | -64 | Non-binding Control mAb (antibody) |
